B1: eEF1A1: protein with methylated lysine identified in 3xMBT pull-down (protein, UniProt P68104 2-462, looked up)
Elongation factor 1-alpha 1: GKEKTHINIVVIGHVDSGKSTTTGHLIYKCGGIDKRTIEKFEKEAAEMGKGSFKYAWVLDKLKAERERGITIDISLWKFETSKYYVTIIDAPGHRDFIKNMITGTSQADCAVLIVAAGVGEFEAGISKNGQTREHALLAYTLGVKQLIVGVNKMDSTEPPYSQKRYEEIVKEVSTYIKKIGYNPDTVAFVPISGWNGDNMLEPSANMPWFKGWKVTRKDGNASGTTLLEALDCILPPTRPTDKPLRLPLQDVYKIGGIGTVPVGRVETGVLKPGMVVTFAPVNVTTEVKSVEMHHEALSEALPGDNVGFNVKNVSVKDVRRGNVAGDSKNDPPMEAAGFTAQVIILNHPGQISAGYAPVLDCHTAHIACKFAELKEKIDRRSGKKLEDGPKFLKSGDAAIVDMVPGKPMCVESFSDYPPLGRFAVRDMRQTVAVGVIKAVDKKAAGAGKVTKSAQKAQKAK
modifications: methylated lysine
notes: protein with methylated lysine identified in 3xMBT pull-down
B2: GTF2I: protein with methylated lysine identified in 3xMBT pull-down (protein, UniProt P78347 2-998, looked up)
General transcription factor …: AQVAMSTLPVEDEESSESRMVVTFLMSALESMCKELAKSKAEVACIAVYETDVFVVGTERGRAFVNTRKDFQKDFVKYCVEEEEKAAEMHKMKSTTQANRMSVDAVEIETLRKTVEDYFCFCYGKALGKSTVVPVPYEKMLRDQSAVVVQGLPEGVAFKHPENYDLATLKWILENKAGISFIIKRPFLEPKKHVGGRVMVTDADRSILSPGGSCGPIKVKTEPTEDSGISLEMAAVTVKEESEDPDYYQYNIQAGPSETDDVDEKQPLSKPLQGSHHSSEGNEGTEMEVPAEDSTQHVPSETSEDPEVEVTIEDDDYSPPSKRPKANELPQPPVPEPANAGKRKVREFNFEKWNARITDLRKQVEELFERKYAQAIKAKGPVTIPYPLFQSHVEDLYVEGLPEGIPFRRPSTYGIPRLERILLAKERIRFVIKKHELLNSTREDLQLDKPASGVKEEWYARITKLRKMVDQLFCKKFAEALGSTEAKAVPYQKFEAHPNDLYVEGLPENIPFRSPSWYGIPRLEKIIQVGNRIKFVIKRPELLTHSTTEVTQPRTNTPVKEDWNVRITKLRKQVEEIFNLKFAQALGLTEAVKVPYPVFESNPEFLYVEGLPEGIPFRSPTWFGIPRLERIVRGSNKIKFVVKKPELVISYLPPGMASKINTKALQSPKRPRSPGSNSKVPEIEVTVEGPNNNNPQTSAVRTPTQTNGSNVPFKPRGREFSFEAWNAKITDLKQKVENLFNEKCGEALGLKQAVKVPFALFESFPEDFYVEGLPEGVPFRRPSTFGIPRLEKILRNKAKIKFIIKKPEMFETAIKESTSSKSPPRKINSSPNVNTTASGVEDLNIIQVTIPDDDNERLSKVEKARQLREQVNDLFSRKFGEAIGMGFPVKVPYRKITINPGCVVVDGMPPGVSFKAPSYLEISSMRRILDSAEFIKFTVIRPFPGLVINNQLVDQSESEGPVIQESAEPSQLEVPATEEIKETDGSSQIKQEPDPTW
modifications: methylated lysine
notes: as for B1
B3: DDX1: protein with methylated lysine identified in 3xMBT pull-down (protein, UniProt Q92499 1-740, looked up)
ATP-dependent RNA helicase …: MAAFSEMGVMPEIAQAVEEMDWLLPTDIQAESIPLILGGGDVLMAAETGSGKTGAFSIPVIQIVYETLKDQQEGKKGKTTIKTGASVLNKWQMNPYDRGSAFAIGSDGLCCQSREVKEWHGCRATKGLMKGKHYYEVSCHDQGLCRVGWSTMQASLDLGTDKFGFGFGGTGKKSHNKQFDNYGEEFTMHDTIGCYLDIDKGHVKFSKNGKDLGLAFEIPPHMKNQALFPACVLKNAELKFNFGEEEFKFPPKDGFVALSKAPDGYIVKSQHSGNAQVTQTKFLPNAPKALIVEPSRELAEQTLNNIKQFKKYIDNPKLRELLIIGGVAARDQLSVLENGVDIVVGTPGRLDDLVSTGKLNLSQVRFLVLDEADGLLSQGYSDFINRMHNQIPQVTSDGKRLQVIVCSATLHSFDVKKLSEKIMHFPTWVDLKGEDSVPDTVHHVVVPVNPKTDRLWERLGKSHIRTDDVHAKDNTRPGANSPEMWSEAIKILKGEYAVRAIKEHKMDQAIIFCRTKIDCDNLEQYFIQQGGGPDKKGHQFSCVCLHGDRKPHERKQNLERFKKGDVRFLICTDVAARGIDIHGVPYVINVTLPDEKQNYVHRIGRVGRAERMGLAISLVATEKEKVWYHVCSSRGKGCYNTRLKEDGGCTIWYNEMQLLSEIEEHLNCTISQVEPDIKVPVDEFDGKVTYGQKRAAGGGSYKGHVDILAPTVQELAALEKEAQTSFLHLGYLPNQLFRTF
B4: CMAS: protein with methylated lysine identified in 3xMBT pull-down (protein, UniProt Q8NFW8 1-434, looked up)
N-acylneuraminate …: MDSVEKGAATSVSNPRGRPSRGRPPKLQRNSRGGQGRGVEKPPHLAALILARGGSKGIPLKNIKHLAGVPLIGWVLRAALDSGAFQSVWVSTDHDEIENVAKQFGAQVHRRSSEVSKDSSTSLDAIIEFLNYHNEVDIVGNIQATSPCLHPTDLQKVAEMIREEGYDSVFSVVRRHQFRWSEIQKGVREVTEPLNLNPAKRPRRQDWDGELYENGSFYFAKRHLIEMGYLQGGKMAYYEMRAEHSVDIDVDIDWPIAEQRVLRYGYFGKEKLKEIKLLVCNIDGCLTNGHIYVSGDQKEIISYDVKDAIGISLLKKSGIEVRLISERACSKQTLSSLKLDCKMEVSVSDKLAVVDEWRKEMGLCWKEVAYLGNEVSDEECLKRVGLSGAPADACSTAQKAVGYICKCNGGRGAIREFAEHICLLMEKVNNSCQK

Target: T1, G9a and GLP (Homo sapiens, UniProt Q96KQ7+Q9H9B1)
T1 sequence (Q96KQ7 2-1210 limits assumed): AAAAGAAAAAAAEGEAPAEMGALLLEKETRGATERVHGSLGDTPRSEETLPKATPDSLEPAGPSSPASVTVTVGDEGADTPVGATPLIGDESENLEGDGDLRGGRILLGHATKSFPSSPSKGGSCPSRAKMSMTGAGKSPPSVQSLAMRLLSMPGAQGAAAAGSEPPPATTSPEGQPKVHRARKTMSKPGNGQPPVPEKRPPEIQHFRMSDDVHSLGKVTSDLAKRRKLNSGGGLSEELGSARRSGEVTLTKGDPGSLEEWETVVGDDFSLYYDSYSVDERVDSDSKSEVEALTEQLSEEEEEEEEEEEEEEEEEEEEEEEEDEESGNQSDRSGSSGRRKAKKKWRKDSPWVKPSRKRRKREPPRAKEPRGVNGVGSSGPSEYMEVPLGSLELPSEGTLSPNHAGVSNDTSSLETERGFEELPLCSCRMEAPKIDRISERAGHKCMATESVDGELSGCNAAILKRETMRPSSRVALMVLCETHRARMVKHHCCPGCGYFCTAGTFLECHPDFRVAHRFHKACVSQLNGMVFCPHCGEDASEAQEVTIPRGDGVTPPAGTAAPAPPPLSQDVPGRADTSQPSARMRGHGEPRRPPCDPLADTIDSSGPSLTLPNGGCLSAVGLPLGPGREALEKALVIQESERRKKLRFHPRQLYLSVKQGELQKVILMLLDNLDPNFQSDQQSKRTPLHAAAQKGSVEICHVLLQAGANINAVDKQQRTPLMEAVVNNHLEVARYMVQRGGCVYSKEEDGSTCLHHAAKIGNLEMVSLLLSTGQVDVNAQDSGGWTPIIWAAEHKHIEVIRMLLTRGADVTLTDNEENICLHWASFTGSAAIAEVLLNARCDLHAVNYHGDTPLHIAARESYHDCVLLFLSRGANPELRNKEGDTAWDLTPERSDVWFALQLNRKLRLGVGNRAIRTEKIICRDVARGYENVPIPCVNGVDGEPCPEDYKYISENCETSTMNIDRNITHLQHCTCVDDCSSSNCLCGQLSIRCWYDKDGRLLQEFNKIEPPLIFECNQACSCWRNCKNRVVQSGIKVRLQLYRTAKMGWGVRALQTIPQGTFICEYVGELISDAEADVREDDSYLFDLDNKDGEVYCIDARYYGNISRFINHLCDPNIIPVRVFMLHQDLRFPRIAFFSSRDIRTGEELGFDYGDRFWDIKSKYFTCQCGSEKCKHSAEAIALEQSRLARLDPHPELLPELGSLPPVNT
T1 sequence (Q9H9B1 2-1298 limits assumed): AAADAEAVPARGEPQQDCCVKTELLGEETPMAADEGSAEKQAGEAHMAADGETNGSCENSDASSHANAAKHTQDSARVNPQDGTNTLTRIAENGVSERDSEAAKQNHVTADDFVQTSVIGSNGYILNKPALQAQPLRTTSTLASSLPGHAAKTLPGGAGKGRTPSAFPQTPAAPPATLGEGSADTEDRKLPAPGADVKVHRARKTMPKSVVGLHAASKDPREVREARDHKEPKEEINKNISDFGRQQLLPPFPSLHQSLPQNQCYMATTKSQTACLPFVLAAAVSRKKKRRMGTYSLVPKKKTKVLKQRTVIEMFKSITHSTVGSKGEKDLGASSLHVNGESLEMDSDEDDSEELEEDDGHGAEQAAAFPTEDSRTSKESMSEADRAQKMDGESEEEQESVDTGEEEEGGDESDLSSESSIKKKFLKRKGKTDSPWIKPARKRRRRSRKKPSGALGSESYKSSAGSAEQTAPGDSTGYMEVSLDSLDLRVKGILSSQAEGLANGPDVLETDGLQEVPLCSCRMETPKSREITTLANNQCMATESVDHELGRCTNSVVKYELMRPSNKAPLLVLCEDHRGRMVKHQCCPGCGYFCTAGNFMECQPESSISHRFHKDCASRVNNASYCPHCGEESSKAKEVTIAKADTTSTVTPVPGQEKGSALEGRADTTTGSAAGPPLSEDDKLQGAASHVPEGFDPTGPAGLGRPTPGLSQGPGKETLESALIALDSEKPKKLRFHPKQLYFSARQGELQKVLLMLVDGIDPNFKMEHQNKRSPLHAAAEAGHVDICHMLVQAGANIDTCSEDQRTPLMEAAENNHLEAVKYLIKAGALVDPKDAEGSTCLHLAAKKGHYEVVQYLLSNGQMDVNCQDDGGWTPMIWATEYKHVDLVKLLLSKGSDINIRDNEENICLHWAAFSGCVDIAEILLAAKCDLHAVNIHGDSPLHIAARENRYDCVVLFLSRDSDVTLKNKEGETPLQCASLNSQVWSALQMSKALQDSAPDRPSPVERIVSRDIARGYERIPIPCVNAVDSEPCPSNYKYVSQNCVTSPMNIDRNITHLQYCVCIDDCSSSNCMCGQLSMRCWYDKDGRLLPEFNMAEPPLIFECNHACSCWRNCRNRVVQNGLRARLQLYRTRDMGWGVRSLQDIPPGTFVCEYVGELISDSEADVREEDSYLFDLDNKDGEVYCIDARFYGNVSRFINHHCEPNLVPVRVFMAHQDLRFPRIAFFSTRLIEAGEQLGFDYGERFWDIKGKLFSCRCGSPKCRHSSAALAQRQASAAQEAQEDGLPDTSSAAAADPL
Assay: Triple SILAC pull-down after UNC0638 treatment of 293T cells, DMSO/UNC0638 ratio of protein captured by 3×MBT;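 also: mass spectrometry (Q-Exactive) SILAC quantitation, DMSO/UNC0638 ratio computed after subtracting 3×MBTD355N mutant pull-down background, only proteins with at least twofold 3×MBT over mutant signal considered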
Assay type: cell-based
Parameters: cells were treated for 24 hours with UNC0638 at 2.5 μM or DMSO vehicle control; endogenous in cells; host or cells: HEK 293T
Conditions: for Relative to UNC0638 UNC Heavy / Relative to UNC0638 UNC Light: SILAC ratio DMSO/UNC0638 of protein pulled down with 3xMBT; for Relative to UNC0638 UNC Heavy: UNC0638 in heavy SILAC media; for Relative to UNC0638 UNC Light: UNC0638 in light SILAC media; for Relative to UNC0638 Average: average of UNC Light and UNC Heavy experiments

Row | Molecule | Relative to UNC0638 UNC Heavy | Relative to UNC0638 UNC Light | Relative to UNC0638 Average
1 | B1 | 0.27 log base 2 | 0.04 log base 2 | 0.15 log base 2
2 | B2 | 0.31 log base 2 | 0.00 log base 2 | 0.16 log base 2
3 | B3 | 0.02 log base 2 | 0.29 log base 2 | 0.16 log base 2
4 | B4 | 0.22 log base 2 | 0.12 log base 2 | 0.17 log base 2
